Laboratory results published in PMC9371898.

Columns and labels:
Experiment in all cases: SEC
[1] = target: PriRep5 K591A (Staphylococcus aureus (SaPI5, strain USA300))
[2] = target: PriRep5-ΔCTD (residues 676-790 removed) (Staphylococcus aureus (SaPI5, strain USA300))
[3] = target: Rep1 Triple Mutant (R248A-Y251A-K253A) (Staphylococcus aureus (SaPI1)) (UniProt Q8GNZ1)

With PriRep5 K591A (natural protein) the stoichiometry N [1] was 6.
With “PriRep5-ΔCTD (residues 676-790 removed) (domain or fragment)” the stoichiometry N [2] was 6.
With “Rep1 Triple Mutant (R248A-Y251A-K253A) (from UniProt Q8GNZ1 1-66) (natural protein)” the stoichiometry N [3] was 6.
